These results are taken from PMC11467669.

This test addresses full-length USP8 (a.a. 7-1110) phosphorylated at S718 by AMPK (human) (UniProt P40818). As to the kind of experiment: SEC-MALLS.

Sequence of full-length USP8 (a.a. 7-1110) phosphorylated at S718 by AMPK (human) (P40818 7-1110): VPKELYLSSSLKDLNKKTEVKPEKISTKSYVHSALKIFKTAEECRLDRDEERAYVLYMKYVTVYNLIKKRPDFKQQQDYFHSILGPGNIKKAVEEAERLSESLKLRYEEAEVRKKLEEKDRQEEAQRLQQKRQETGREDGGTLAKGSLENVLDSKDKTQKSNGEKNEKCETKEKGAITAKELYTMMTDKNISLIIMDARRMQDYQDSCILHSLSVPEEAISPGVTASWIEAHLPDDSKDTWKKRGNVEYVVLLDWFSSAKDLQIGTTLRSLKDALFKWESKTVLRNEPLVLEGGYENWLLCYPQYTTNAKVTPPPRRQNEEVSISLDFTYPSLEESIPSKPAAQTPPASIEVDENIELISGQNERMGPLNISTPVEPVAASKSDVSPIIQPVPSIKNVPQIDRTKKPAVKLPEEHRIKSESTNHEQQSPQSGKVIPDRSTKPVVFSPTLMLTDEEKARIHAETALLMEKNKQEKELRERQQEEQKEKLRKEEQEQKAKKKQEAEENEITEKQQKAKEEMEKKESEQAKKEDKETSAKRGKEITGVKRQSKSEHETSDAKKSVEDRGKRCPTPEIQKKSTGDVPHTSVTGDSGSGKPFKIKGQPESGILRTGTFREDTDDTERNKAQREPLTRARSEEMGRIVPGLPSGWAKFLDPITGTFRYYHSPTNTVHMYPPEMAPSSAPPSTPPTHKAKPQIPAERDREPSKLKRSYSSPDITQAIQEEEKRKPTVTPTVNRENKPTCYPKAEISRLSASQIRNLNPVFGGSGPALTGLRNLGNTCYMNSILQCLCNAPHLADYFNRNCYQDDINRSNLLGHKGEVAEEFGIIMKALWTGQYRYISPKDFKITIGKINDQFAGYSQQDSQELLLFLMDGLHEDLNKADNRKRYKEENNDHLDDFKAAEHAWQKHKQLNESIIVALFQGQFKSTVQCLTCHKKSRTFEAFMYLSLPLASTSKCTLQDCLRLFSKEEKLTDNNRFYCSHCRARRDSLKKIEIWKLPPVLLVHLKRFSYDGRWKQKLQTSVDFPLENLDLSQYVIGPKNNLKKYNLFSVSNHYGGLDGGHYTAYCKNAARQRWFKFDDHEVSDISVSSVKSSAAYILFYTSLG

“14-3-3γ (from UniProt P61981 1-247) (natural protein)” came in with a stoichiometry N (14-3-3γ dimer per USP8) of 1.
